No end group written: not given here. fluorescein = fluorescein label at the amino-terminal end; Flu = fluorescein

One assay has as its target T1, human AT1 receptor (Homo sapiens, UniProt P30556).
T1 construct: purchased NEN Life Science Products Inc., Boston, Mass; host or cells: Chinese hamster ovary (CHO) cells, purified membrane preparation
T1 sequence (P30556 1-359): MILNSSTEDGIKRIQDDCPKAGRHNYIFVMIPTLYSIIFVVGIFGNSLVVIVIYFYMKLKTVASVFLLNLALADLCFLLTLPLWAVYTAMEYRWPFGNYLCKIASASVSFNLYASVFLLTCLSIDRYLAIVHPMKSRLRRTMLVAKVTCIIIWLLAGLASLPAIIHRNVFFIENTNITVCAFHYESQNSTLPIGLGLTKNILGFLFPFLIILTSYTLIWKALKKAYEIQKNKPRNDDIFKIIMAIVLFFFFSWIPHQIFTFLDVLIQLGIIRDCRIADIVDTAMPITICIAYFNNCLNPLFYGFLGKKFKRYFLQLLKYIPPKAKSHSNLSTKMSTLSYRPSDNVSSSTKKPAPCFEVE
The assay can be described thus: Flu-AII:AT1 fluorescent intensity quenching binding assay. Particulars: 0.005, 0.01, 0.02 and 0.05 units AT1 receptor, 10 nM probe.

In assay [1] the target is T2, Cloned human angiotensin II AT1 receptor (purified membrane preparation derived from CHO cells) (human, UniProt P30556 1-359).
T2 construct: whole, on cells; Used as a membrane preparation, not intact cells; also called human AT1 receptor
T2 sequence (looked up): T1 sequence (P30556 1-359)
The assay can be described thus: fluorescence intensity quenching assay in solution.

Turning to “Flu-Asp-Arg-Val-Tyr-Ile (fluorescein-DRVYI) [Flu-AII(1-5)]”, in the assay with human AT1 receptor, the “binding to AT1 receptor (fluorescent intensity versus probe alone)” value is given as “did not bind”.

B1: Mutant angiotensin II fragment containing the first five amino acid residues of wildtype AII, labeled with fluorescein at its amino-terminus [Flu-AII(1-5)] (peptide)
peptide: Flu-DRVYI
notes: Synthesized by AnaSpec; also called mutant Flu-AII(1-5); mutant Flu-AII
In the case of B1, the binding result in assay [1] is recorded as “no binding”.

Values taken from patent US6645733B1, “Fluorescent intensity method for assaying binding between proteins or peptides” (Ingeneus Corporation, priority 1999, dated 2003).
